± gives the standard deviation of the averaged measurements.
Test system: ATP
Experiment: switch fluorescence ratio, 500 uM ATP over buffer (Cy3 cluster intensity, sum of 5 cycles each) (fold (ratio)); higher = stronger signal-on switching upon ATP binding; sequences stand for … in TCGTCGGCAGCGTCAGATGTGTATAAGAGACAGTTTTTTTTTTTTTTTTTTTTTTTTT…TC
Details: aptamer strand: ATP DNA aptamer (quencher-CACCTGGGGGAGTATTGCGGAGGAAGG + anchor), 100 nM annealed; ATP concentration: 500 uM
Procedure, shortened: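 Imaging in selection buffer was followed by imaging after 15 min with 500 uM ATP at 22 °C, for Cy3-labelled switching-strand clusters annealed to 100 nM quencher-labelled ATP aptamer on a modified Illumina MiSeq flow-cell. Five of these buffer/ATP cycles ran, separated by NaOH stripping and re-annealing. The fluorescence ratio per cluster is summed target-cycle over summed buffer-cycle Cy3 intensity, averaged per switch-domain sequence; clusters outside 100-1000 RFU were removed.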
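Further: ATP exposure 15 min at 22 °C before imaging.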

Sequence	switch fluorescence ratio
CGGGTAGCT	1.01 ± 0.03
ATTTATGTGG	0.998 ± 0.02
CTGTCTGGCT	1.02 ± 0.016
GCAGTTAGTT	1.01 ± 0.033
TCATAATTAG	1 ± 0.0068
CGTGAGGGTA	1.02 ± 0.028
GCATGCGGGA	1.02 ± 0.074
GGGCTTTAAG	1.03 ± 0.04
ATTAGAAAAA	0.904 ± 0.019
TCGGGAACGA	0.999 ± 0.028
TGATACGCTA	1.28 ± 0.23
GACTAAATGA	1.01 ± 0.016
TAGTTGGTTT	0.999 ± 0.037
TGCTGGGGCG	0.9876 ± 0.0022
TCCATAGTCG	1.03 ± 0.014
AAATCAGTGG	0.998 ± 0.031
TAGGGGTGGC	0.956 ± 0.099
CGTCACAGTG	1.04 ± 0.019
AGGCTGTTTT	1.02 ± 0.016
GGGCCTGTGA	1 ± 0.03
GAATTAGCAC	1.05 ± 0.038
CTGCGGGAGG	1.008 ± 0.0024
TTAACATATA	1.017 ± 0.0088
TTCAATATGC	1.1 ± 0.033
ACGGGGGCTT	1.04 ± 0.062
GGGATGGGAC	1.043 ± 0.0081

Sequence	switch fluorescence ratio
TTTGAGGGA	0.9945 ± 0.0052
TTCCGGTTGT	1.03 ± 0.011
AATTGATTCT	1.026 ± 0.0018
CGCAGAGCAA	2.538 ± 0.0049
AAATGAACCG	1.06 ± 0.013
GCGGGGAGGT	1.01 ± 0.055
AGTAGGGGGG	0.988 ± 0.033
GGGCTTGTAA	0.964 ± 0.012
CCCGACAGCC	1.97 ± 0.3
ATTGTTTGTC	0.996 ± 0.064
CGGGGTAGCG	0.965 ± 0.013
TAAATGAAGG	1.04 ± 0.048
TTATATTTCT	1.01 ± 0.036
TGAATCCGGG	1 ± 0.038
GGGAGGGTGC	1.02 ± 0.07
AATATAGGAA	1.016 ± 0.0092
CGAGGCAGCT	1.16 ± 0.15
GAAGGGATTT	1.13 ± 0.11
CTTGTGGCTA	0.956 ± 0.046
GGGGTGGAAA	0.979 ± 0.018
AAGTAAGGGG	0.955 ± 0.054
TTCTCTTGTT	1 ± 0.037
TCCAGGGTCA	1.01 ± 0.025
CATTAGACAT	0.994 ± 0.026
GGTTGTCCTA	0.978 ± 0.023
AACAGAGTTA	1.02 ± 0.013

Sequence	switch fluorescence ratio
GACCGAGTTC	1.005 ± 0.0024
AAGCTGTGCA	0.99 ± 0.038
ATTATTGGTG	1.018 ± 0.0046
ATATACGTTG	1.03 ± 0.011
AGTGTCCTGG	0.986 ± 0.013
TGTAGTTGGA	0.973 ± 0.032
ATGGGGTTAA	1.03 ± 0.022
ACCCATCCAT	1.02 ± 0.017
GGGGGAAAAT	0.993 ± 0.042
GAGTGGAGAC	0.977 ± 0.053
CGAAAGTAGC	1.01 ± 0.013
GGAGGTTGTG	0.987 ± 0.017
AAGGGTTTCT	1.02 ± 0.038
TAGTTTTTCG	1 ± 0.025
AGTTGGGGCT	1.01 ± 0.023
TTATACAAGT	0.9574 ± 0.0065
AAGTCCGTTT	1.02 ± 0.044
AGTTAACCGG	1.006 ± 0.0027
AGATTTTAGG	0.988 ± 0.012
GGAAGGCCTA	0.954 ± 0.017
ACGGGTATGG	1.01 ± 0.017
CCTAGGGTTC	0.984 ± 0.01
TATGGTCTGT	0.981 ± 0.042
TCGGGAGTAC	1.01 ± 0.015
TAGTTATGAA	1.01 ± 0.016
AGTGGATTGT	1.01 ± 0.046

Sequence	switch fluorescence ratio
TTAAAGGGA	1.01 ± 0.022
CAAATGAAAG	1.004 ± 0.0058
TGGTTATACT	0.973 ± 0.052
GAATGGTCGC	0.963 ± 0.026
AAGTTTTATT	0.992 ± 0.043
ACGATTGGGT	0.992 ± 0.013
GCCCCAGGGG	4.81 ± 0.36
ATTAACTGAA	1.04 ± 0.012
TTGGAAGTAG	0.9688 ± 0.0029
TACTTGTGTT	1.02 ± 0.046
GGGGGAGTGG	0.982 ± 0.054
GATTTTAGTC	0.993 ± 0.04
GCGATGTAGA	1.051 ± 0.0087
GAGGGGCAGG	1.02 ± 0.074
GGATGGGGTT	1 ± 0.018
TGTGGGAGGG	0.998 ± 0.042
ACCGGTTTCT	0.997 ± 0.037
TTAGGAAATT	1.04 ± 0.032
AATAAAGGGG	1.19 ± 0.25
TTTCCTCAG	1.3 ± 0.4
ACAGGGTTGG	1.02 ± 0.03
ATGTAGGGGT	1.04 ± 0.093
AAATGGGGGT	0.975 ± 0.011
TACGTAACTC	1.28 ± 0.028
GTGGTGGAAA	1 ± 0.0029
ACGTTTACCA	1.217 ± 0.0099

Sequence	switch fluorescence ratio
GAGGTTTAGG	0.986 ± 0.042
TTGGGTTCCT	1.04 ± 0.11
CAGGCAAGCG	1.04 ± 0.026
CTGTGGATGC	1.089 ± 0.0038
TCTGGAAGGG	1.02 ± 0.019
GGAGGAGGTG	1.02 ± 0.065
TTACGTTTTG	1.13 ± 0.29
TGATCGTG	1.01 ± 0.015
GGATGGTGGA	0.9966 ± 0.0093
TTGTTCAAAA	1.03 ± 0.025
ATGGTGCGGC	1.008 ± 0.0018
TTGTGAGTGT	1.01 ± 0.034
CCATGGGGCT	1.29 ± 0.46
TGACAGGCGG	0.963 ± 0.011
GAAATGACTT	1.03 ± 0.015
CGTGGTTGCG	0.962 ± 0.055
CAAGATTCTT	0.975 ± 0.056
CGTCGGTTTG	0.993 ± 0.019
CGTTTTTAGG	1.02 ± 0.024
TCGGTGTGCG	1.03 ± 0.033
GAAAAAGGTG	1.1 ± 0.028
ACCATGGCTT	0.976 ± 0.013
TTTTTCCGTG	0.9819 ± 0.0037
TTTGTAAGTA	1 ± 0.013
CTAAGGGAGG	0.992 ± 0.017
ATGAAATAGT	0.959 ± 0.046

Sequence	switch fluorescence ratio
AAAAGATTGT	1.043 ± 0.0085
AAGACACAGA	1.06 ± 0.035
TAAGGGGTGG	0.969 ± 0.028
GGGGTCCGTG	0.993 ± 0.067
ATAACACGGC	1.05 ± 0.1
AGGTGGGCAG	0.984 ± 0.018
TTCTGGGTGG	0.987 ± 0.04
AGAGTGGCAG	1.01 ± 0.021
GAAAATCAGC	0.976 ± 0.071
TTATTAGTCA	0.986 ± 0.041
AGGGGCTGGT	0.997 ± 0.026
CGTGGGGGGA	1.03 ± 0.013
TGTGTGCGGT	0.997 ± 0.054
TCCTAATGGG	0.985 ± 0.025
GGGGACTTGT	0.9988 ± 0.0082
TTGCTGGGGT	1.01 ± 0.044
TATGGTAGGG	0.9886 ± 0.0076
TTAGGTTTGT	1 ± 0.031
AGGCCCTAAG	1.01 ± 0.017
GGGAGGATTA	1 ± 0.031
GGGTAGGGTT	0.9832 ± 0.0077
TTTGTCGCAT	1.14 ± 0.067
TAGGGTGGG	1.024 ± 0.0028

Reference: the supplement of paper PMC10126150
